Data taken from patent publication US20200079833A1 (AstraZeneca / MedImmune, published 2020).
Starred links: 1 amine or outer side, 2 acyl side, 3 side chain; linkers in the order of their positions; H or OH if unused. Non-standard residues stand in square brackets, D forms with d. Groups on a side chain read outwards from the residue. Primed or numbered codes have the meaning given here. No end group written: not given here. *: point of attachment. γGlu = O=C(O)[C@H](CCC(=O)[*:2])N[*:1]; αMeF = C[C@](N)(Cc1ccccc1)C(=O)O; αMeK = C[C@](N)(CCCCN)C(=O)O; Lauroyl = CCCCCCCCCCCC(=O)*; αMeS = C[C@](N)(CO)C(=O)O; PEG2′ = not defined here; Aib = CC(C)(N)C(=O)O

What follows are binders tested against T1, glucose-dependent insulinotropic peptide (gastric inhibitory polypeptide) receptor (GIPR), primary cAMP assay … (human, UniProt P48546 22-466) (assay: cell-based or functional assay).
T1 sequence (looked up): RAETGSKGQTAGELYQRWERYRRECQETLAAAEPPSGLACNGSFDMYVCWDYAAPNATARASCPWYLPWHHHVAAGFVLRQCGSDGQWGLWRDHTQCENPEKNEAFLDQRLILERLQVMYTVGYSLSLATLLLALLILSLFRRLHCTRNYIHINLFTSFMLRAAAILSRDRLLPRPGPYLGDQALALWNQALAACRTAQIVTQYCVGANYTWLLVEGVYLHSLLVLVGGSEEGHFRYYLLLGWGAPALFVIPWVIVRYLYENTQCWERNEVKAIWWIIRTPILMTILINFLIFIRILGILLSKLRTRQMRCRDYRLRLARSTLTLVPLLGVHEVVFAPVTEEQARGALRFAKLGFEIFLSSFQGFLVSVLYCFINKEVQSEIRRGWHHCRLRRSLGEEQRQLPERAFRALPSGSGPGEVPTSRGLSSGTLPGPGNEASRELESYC

Binder | cAMP Primary assay EC50, n1 [nM] | cAMP Primary assay EC50, n2 [nM]
H[Aib]EGS[αMeF]TSDVSK([PEG2′-PEG2′-γGlu-Lauroyl])YLEK([PEG2′-PEG2′-γGlu-Lauroyl])EAA[αMeK]EFIAK([PEG2′-PEG2′-γGlu-Lauroyl])VVEGG-NH2 [SEQ ID NO: 459] | 19.7 | 19.7
H[Aib]EGS[αMeF]TSDV[αMeS]SYK([PEG2′-PEG2′-γGlu-Lauroyl])EGEK([PEG2′-PEG2′-γGlu-Lauroyl])A[αMeK]EFIK([PEG2′-PEG2′-γGlu-Lauroyl])FVVEGG-NH2 [SEQ ID NO: 453] | 19.5 | 19.5
H[Aib]EGS[αMeF]TSDK([PEG2′-PEG2′-γGlu-Lauroyl])SSYLEGK([PEG2′-PEG2′-γGlu-Lauroyl])AA[αMeK]EFIAK([PEG2′-PEG2′-γGlu-Lauroyl])VVEGG-NH2 [SEQ ID NO: 456] | 20 | 20
H[Aib]EGS[αMeF]TSDVSK([PEG2′-PEG2′-γGlu-Lauroyl])YLEGEK([PEG2′-PEG2′-γGlu-Lauroyl])A[αMeK]EFIK([PEG2′-PEG2′-γGlu-Lauroyl])FVVEGG-NH2 [SEQ ID NO: 445] | 19.5 | 19.5
H[Aib]EGS[αMeF]TSDV[αMeS]SYK([PEG2′-PEG2′-γGlu-Lauroyl])EGK([PEG2′-PEG2′-γGlu-Lauroyl])AA[αMeK]EFIK([PEG2′-PEG2′-γGlu-Lauroyl])FVVEGG-NH2 [SEQ ID NO: 452] | 19.5 | 19.7
H[Aib]EGS[αMeF]TSDK([PEG2′-PEG2′-γGlu-Lauroyl])SSYLEK([PEG2′-PEG2′-γGlu-Lauroyl])EAA[αMeK]EFIK([PEG2′-PEG2′-γGlu-Lauroyl])FVVEGG-NH2 [SEQ ID NO: 439] | 19.5 | 19.5
H[Aib]EGS[αMeF]TSDV[αMeS]SK([PEG2′-PEG2′-γGlu-Lauroyl])LEGEK([PEG2′-PEG2′-γGlu-Lauroyl])A[αMeK]EFIK([PEG2′-PEG2′-γGlu-Lauroyl])FVVEGG-NH2 [SEQ ID NO: 449] | 19.7 | 19.7
H[Aib]EGS[αMeF]TSDV[αMeS]SYK([PEG2′-PEG2′-γGlu-Lauroyl])EK([PEG2′-PEG2′-γGlu-Lauroyl])EAA[αMeK]EFIK([PEG2′-PEG2′-γGlu-Lauroyl])FVVEGG-NH2 [SEQ ID NO: 451] | 19.7 | 19.5

What follows are binders tested against GLP-1 receptor (GLP-1R), primary cAMP assay cell line (human, UniProt P43220 24-463) (assay: cell-based or functional assay).

Binder | cAMP Primary assay EC50, Mean pM GLP-1R [pM] | cAMP Primary assay EC50, n1 [nM] | cAMP Primary assay EC50, n2 [nM]
H[Aib]EGS[αMeF]TSDVSK([PEG2′-PEG2′-γGlu-Lauroyl])YLEK([PEG2′-PEG2′-γGlu-Lauroyl])EAA[αMeK]EFIAK([PEG2′-PEG2′-γGlu-Lauroyl])VVEGG-NH2 [SEQ ID NO: 459] | 100 | 0.0895 | 0.111
H[Aib]EGS[αMeF]TSDV[αMeS]SYK([PEG2′-PEG2′-γGlu-Lauroyl])EGEK([PEG2′-PEG2′-γGlu-Lauroyl])A[αMeK]EFIK([PEG2′-PEG2′-γGlu-Lauroyl])FVVEGG-NH2 [SEQ ID NO: 453] | 114 | 0.0629 | 0.165
H[Aib]EGS[αMeF]TSDK([PEG2′-PEG2′-γGlu-Lauroyl])SSYLEGK([PEG2′-PEG2′-γGlu-Lauroyl])AA[αMeK]EFIAK([PEG2′-PEG2′-γGlu-Lauroyl])VVEGG-NH2 [SEQ ID NO: 456] | 170 | 0.116 | 0.224
H[Aib]EGS[αMeF]TSDVSK([PEG2′-PEG2′-γGlu-Lauroyl])YLEGEK([PEG2′-PEG2′-γGlu-Lauroyl])A[αMeK]EFIK([PEG2′-PEG2′-γGlu-Lauroyl])FVVEGG-NH2 [SEQ ID NO: 445] | 260 | 0.242 | 0.277
H[Aib]EGS[αMeF]TSDV[αMeS]SYK([PEG2′-PEG2′-γGlu-Lauroyl])EGK([PEG2′-PEG2′-γGlu-Lauroyl])AA[αMeK]EFIK([PEG2′-PEG2′-γGlu-Lauroyl])FVVEGG-NH2 [SEQ ID NO: 452] | 80.9 | 0.0857 | 0.0761
H[Aib]EGS[αMeF]TSDK([PEG2′-PEG2′-γGlu-Lauroyl])SSYLEK([PEG2′-PEG2′-γGlu-Lauroyl])EAA[αMeK]EFIK([PEG2′-PEG2′-γGlu-Lauroyl])FVVEGG-NH2 [SEQ ID NO: 439] | 97 | 0.0599 | 0.134
H[Aib]EGS[αMeF]TSDV[αMeS]SK([PEG2′-PEG2′-γGlu-Lauroyl])LEGEK([PEG2′-PEG2′-γGlu-Lauroyl])A[αMeK]EFIK([PEG2′-PEG2′-γGlu-Lauroyl])FVVEGG-NH2 [SEQ ID NO: 449] | 246 | 0.216 | 0.276
H[Aib]EGS[αMeF]TSDV[αMeS]SYK([PEG2′-PEG2′-γGlu-Lauroyl])EK([PEG2′-PEG2′-γGlu-Lauroyl])EAA[αMeK]EFIK([PEG2′-PEG2′-γGlu-Lauroyl])FVVEGG-NH2 [SEQ ID NO: 451] | 93.4 | 0.0288 | 0.158

The binders below were run against glucagon receptor (GCGR), primary cAMP assay cell line (human, UniProt P47871 26-477) (assay: cell-based or functional assay).
Chain of glucagon receptor (GCGR), primary cAMP assay cell line (P47871 26-477): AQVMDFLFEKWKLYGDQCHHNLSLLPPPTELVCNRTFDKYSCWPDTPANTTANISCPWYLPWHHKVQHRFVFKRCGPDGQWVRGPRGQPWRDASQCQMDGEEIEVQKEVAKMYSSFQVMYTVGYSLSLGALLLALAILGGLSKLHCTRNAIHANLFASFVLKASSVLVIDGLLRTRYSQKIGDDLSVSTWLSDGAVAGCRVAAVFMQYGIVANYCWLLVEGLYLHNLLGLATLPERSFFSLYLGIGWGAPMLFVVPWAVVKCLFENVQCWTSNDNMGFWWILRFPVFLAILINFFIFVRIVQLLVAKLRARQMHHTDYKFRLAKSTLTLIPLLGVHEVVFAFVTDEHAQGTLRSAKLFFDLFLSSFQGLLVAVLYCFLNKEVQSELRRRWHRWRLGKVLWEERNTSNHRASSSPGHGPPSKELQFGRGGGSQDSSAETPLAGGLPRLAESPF

Binder | cAMP Primary assay EC50, n1 [nM] | cAMP Primary assay EC50, n2 [nM]
H[Aib]EGS[αMeF]TSDVSK([PEG2′-PEG2′-γGlu-Lauroyl])YLEK([PEG2′-PEG2′-γGlu-Lauroyl])EAA[αMeK]EFIAK([PEG2′-PEG2′-γGlu-Lauroyl])VVEGG-NH2 [SEQ ID NO: 459] | 19.7 | 19.7
H[Aib]EGS[αMeF]TSDV[αMeS]SYK([PEG2′-PEG2′-γGlu-Lauroyl])EGEK([PEG2′-PEG2′-γGlu-Lauroyl])A[αMeK]EFIK([PEG2′-PEG2′-γGlu-Lauroyl])FVVEGG-NH2 [SEQ ID NO: 453] | 19.5 | 19.5
H[Aib]EGS[αMeF]TSDK([PEG2′-PEG2′-γGlu-Lauroyl])SSYLEGK([PEG2′-PEG2′-γGlu-Lauroyl])AA[αMeK]EFIAK([PEG2′-PEG2′-γGlu-Lauroyl])VVEGG-NH2 [SEQ ID NO: 456] | 10 | 20
H[Aib]EGS[αMeF]TSDVSK([PEG2′-PEG2′-γGlu-Lauroyl])YLEGEK([PEG2′-PEG2′-γGlu-Lauroyl])A[αMeK]EFIK([PEG2′-PEG2′-γGlu-Lauroyl])FVVEGG-NH2 [SEQ ID NO: 445] | 19.5 | 19.5
H[Aib]EGS[αMeF]TSDV[αMeS]SYK([PEG2′-PEG2′-γGlu-Lauroyl])EGK([PEG2′-PEG2′-γGlu-Lauroyl])AA[αMeK]EFIK([PEG2′-PEG2′-γGlu-Lauroyl])FVVEGG-NH2 [SEQ ID NO: 452] | 19.5 | 19.7
H[Aib]EGS[αMeF]TSDK([PEG2′-PEG2′-γGlu-Lauroyl])SSYLEK([PEG2′-PEG2′-γGlu-Lauroyl])EAA[αMeK]EFIK([PEG2′-PEG2′-γGlu-Lauroyl])FVVEGG-NH2 [SEQ ID NO: 439] | 19.5 | 19.5
H[Aib]EGS[αMeF]TSDV[αMeS]SK([PEG2′-PEG2′-γGlu-Lauroyl])LEGEK([PEG2′-PEG2′-γGlu-Lauroyl])A[αMeK]EFIK([PEG2′-PEG2′-γGlu-Lauroyl])FVVEGG-NH2 [SEQ ID NO: 449] | 19.7 | 19.7
H[Aib]EGS[αMeF]TSDV[αMeS]SYK([PEG2′-PEG2′-γGlu-Lauroyl])EK([PEG2′-PEG2′-γGlu-Lauroyl])EAA[αMeK]EFIK([PEG2′-PEG2′-γGlu-Lauroyl])FVVEGG-NH2 [SEQ ID NO: 451] | 19.7 | 19.5
